Target: cytochrome b558 (human (endogenous in neutrophils)) (UniProt P04839)
UniProt P04839, sequence (P04839 whole entry, chain 1 of 2): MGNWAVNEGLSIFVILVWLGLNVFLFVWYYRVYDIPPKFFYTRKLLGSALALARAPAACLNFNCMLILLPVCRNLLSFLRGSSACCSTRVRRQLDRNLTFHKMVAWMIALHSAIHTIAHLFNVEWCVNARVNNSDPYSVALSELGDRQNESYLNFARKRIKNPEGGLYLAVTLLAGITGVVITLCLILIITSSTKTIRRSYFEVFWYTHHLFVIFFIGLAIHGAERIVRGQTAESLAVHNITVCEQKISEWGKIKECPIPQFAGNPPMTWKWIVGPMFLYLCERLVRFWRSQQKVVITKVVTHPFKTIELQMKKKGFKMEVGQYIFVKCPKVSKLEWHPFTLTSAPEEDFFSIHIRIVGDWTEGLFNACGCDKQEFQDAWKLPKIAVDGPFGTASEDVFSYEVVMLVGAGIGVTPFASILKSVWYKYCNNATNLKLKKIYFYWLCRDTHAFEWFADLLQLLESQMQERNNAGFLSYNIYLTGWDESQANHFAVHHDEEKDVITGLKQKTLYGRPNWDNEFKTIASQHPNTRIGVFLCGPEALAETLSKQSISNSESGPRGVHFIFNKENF
UniProt P04839, sequence (P13498 whole entry, chain 2 of 2, further chain): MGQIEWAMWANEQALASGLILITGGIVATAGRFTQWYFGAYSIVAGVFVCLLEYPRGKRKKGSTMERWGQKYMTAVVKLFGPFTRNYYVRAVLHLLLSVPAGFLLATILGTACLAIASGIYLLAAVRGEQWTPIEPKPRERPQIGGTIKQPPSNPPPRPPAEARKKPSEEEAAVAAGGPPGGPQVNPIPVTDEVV

constitutive NADPH oxidase turnover (without arachidonic acid) of cytochrome b558 washed on the heparin matrix with the calcium loaded chimera instead of cytosol (control without washing 3.7 s^-1): 17 s⁻¹
Substance: rS100A9-A8 chimera (full length) (from UniProt P05109 1-93)

Reference: publication PMC3393751
